In PMC6197793, “Optimized Enzymatic Synthesis of Feruloyl Derivatives Catalyzed by Three Novel Feruloyl Esterases from Talaromyces wortmannii in Detergentless Microemulsions” (Computational and Structural Biotechnology Journal, 2018) one finds Km data, which are given here for three proteins.

What all share (assay): transesterification rate, HPLC, Michaelis-Menten fit
What all share (assay type): biochemical, Talaromyces wortmannii

Substrate in data set [1]: C=COC(=O)/C=C/c1ccc(O)c(OC)c1
As to conditions: acyl donor, co-substrate 200 mM prenol, detergentless microemulsion n-hexane: t-butanol: 100 mM MOPS-NaOH pH 6.0 (system II, 3.2% buffer), 40 °C, 8 h. The text has this:
transesterification rate, HPLC, Michaelis-Menten fit on Fae125

Substrate in data set [2]: C=COC(=O)/C=C/c1ccc(O)c(OC)c1
As to conditions: acyl donor, co-substrate 200 mM prenol, system II microemulsion, MOPS-NaOH pH 6.0, 40 °C, 8 h. The text has this:
transesterification rate, HPLC, Michaelis-Menten fit on Fae7262

Substrate in data set [3]: C=COC(=O)/C=C/c1ccc(O)c(OC)c1
The conditions noted are these: acyl donor, co-substrate 200 mM prenol, system I microemulsion (5.0% buffer), MOPS-NaOH pH 6.0, 40 °C, 8 h. The text has this:
transesterification rate, HPLC, Michaelis-Menten fit on Fae68

B1: Fae125 (Talaromyces wortmannii) (protein)
chain: QQSLWGQCGGTGWTGPTQCVSGACCQVQNPYYSQCIQGNCSPASSTSSTKTTATSVSTTTSARPSGTSLSSGCGKTLSLHSGTYTTTVSGQQRQYTLTLPQNYSPNKAYQLIFGYHWLSGTMQDVVSGSYYGIQPLAGDNAIFVAPQGLNNGWGNTNGDDITFTDQMLSTLENALCIDQTQIYSMGWSYGGAMSYALACARPNVFRAVAVMSGANLSGCSPGTQPVAYYAQHGVSDSVLPFSLGEGIRDTFVKDNHCTPTNPPAPAAGSGTHIKTEYSGCDSGHPVWWVAFDGPHEPLATDAGTSSSWTPGQIWSFFSLFH
notes: expressed in low-background C1 (Myceliophthora thermophila) strain; CBM1 predicted at residues 4-30; EC 3.1.1.73
On to B1, for which, in data set [1], the Km is 21.2 ± 7.4 mM.

B2: Fae7262 (Talaromyces wortmannii) (protein)
chain: ASLTQVNNFGDNPGSLQMYIYVPNTLASKPAVIVAMHPCGGSATEYYGMYDYHSPADQYGYILIYPSATRDYNCFDAYSSSSLTHNGGSDSLSIVNMVKYVISTYGADSSKVYMTGSSSGAIMTNVLAGAYPDVFAAGSAFSGMPYACLYGAGAADPIMSNQTCSQGQIQHTGQQWAAYVHNGYPGYTGRYPRLQMWHGTADNVISYADLGQEISQWTTVMGLSFTGNQTNTPLSGYTKMVYGDGSQFQAYSAAGVGHFVPTDVSVVLDWFGITSGTTTTTTSKTTSATTSTTSSAPSSTGGCTAAHWAQCGGIGYTGCTACVSPYTCQKSNDYYSQCL
notes: expressed in low-background C1 (Myceliophthora thermophila) strain; EC 3.1.1.73
As to B2, the Michaelis-Menten constant (Km) in data set [2] came to 26.2 ± 2.9 mM.

B3: Fae68 (Talaromyces wortmannii) (protein)
chain: LPETHLQARGQSTSASSQSFQAKCEAFSSKINGQKKNAFQNDITLHSVTYIPSGGNISMATIPSVCANNAISTASPVEFCRVSLNVTTSSTSQIYMEAWLPGNYTGRFLSTGNGGLGGCIQYSDMLYATQFGFATVGTNNGHFGDTGKYFLGNTEILEDFAYRALHTGVVIGKELAKLFYTQISSGYNKSYYLGCSTGGRQGWKSLEKFPDDFDGVVAGSPAFNFINLSNWGARFLGITGDNTSDTFVTATQWGNLIHDEIIRQCDALDGAVDGIIEDPDLCHPVFETLICNSSSTASSSCLTGVQANTVNQVFTPLIGEDGKWLYPRMQPGSEVLAAYIYYSGQPFQYSTDWFRYVVYNNSAWDPTTWTLADAAAADRQDPFDISTWDSSLVSGFQKKGGKVLHYHGMEDPIITSDSSKAWYKYLADSTNTSPSELDEFYRFFAISGMGHCSPGSGASYIGQGVGTYVPGSEQHPEDNVLMAMVQWVEEGIAPEFVRGAKVASNGSVEYTRKHCKFPKRNVYVGPGNYTDENAWECV
notes: as for B2
For the protein B3, the Km in data set [3] stood at 16.3 ± 3.7 mM.
